± gives the standard deviation of the averaged measurements.
B1: library; a variant is named by its letters at N, in order (parent)
chain: GCUGUCACCGGUGCUUGGUACGUUAUAUUCAGCCGGUCUGAUGAGUCUNNNNNNAGACGAAACAGC

Assays:
[1] = variants of: B1; test: normalized RNA/DNA level without ligand (relative to sTRSVctl = 100) (log10 (% of sTRSVctl)); HEK293T overexpressing SLC46A1; higher = less ribozyme self-cleavage, higher mRNA level; conditions: without (6R,S)-folinic acid; ligand present: no
Procedure, shortened: (§1)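 Ribozyme switch library plasmids with mCherry reporters (eGFP in certain ligand experiments) went into HEK293T cells at 4 µg per 6-well well. Where ligand was used, it was applied 1 h before transfection, and total RNA was extracted with EDTA 72 h later for reverse transcription, amplification, barcoding and sequencing. RNA level is the RNA-to-DNA read ratio normalized to a spiked-in non-cleaving sequence or to the leading sequences, then scaled and log-transformed. Scaling was ×100 with log10, the leading set comprised 25 sequences, and the cutoff was ≥100 DNA reads.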

[2] = variants of: B1; test: normalized RNA/DNA level with ligand (relative to sTRSVctl = 100) (log10 (% of sTRSVctl)); HEK293T overexpressing SLC46A1; ligand concentration (+) RNA-Seq: 6 mM; higher = less ribozyme self-cleavage, higher mRNA level; conditions: with (6R,S)-folinic acid; ligand present: yes
Procedure, shortened: as §1

Variant	normalized RNA/DNA level without ligand (log10) [1]	normalized RNA/DNA level with ligand (log10) [2]
UUACCU	2.061 ± 0.0025	2.05 ± 0.04
CCCCCU	2.063 ± 0.017	2.01 ± 0.037
GUUGUU	2.03 ± 0.021	2.035 ± 0.018
UUCAUA	1.993 ± 0.0029	1.994 ± 0.002
CUAAAU	1.977 ± 0.0084	1.99 ± 0.034
CACGCU	2.042 ± 0.0097	2.034 ± 0.011
AGCUCC	2.095 ± 0.0069	2.04 ± 0.042
GCAGGU	1.934 ± 0.012	1.99 ± 0.03
AGGUGC	2.0042 ± 0.0006	2.01 ± 0.044
GGGAAC	1.997 ± 0.015	2.02 ± 0.032
AAACUA	1.9744 ± 0.0006	2 ± 0.038
AUGAUA	1.946 ± 0.017	2.002 ± 0.019
UUCUUG	1.914 ± 0.0095	2.02 ± 0.023
GACCUG	2.06 ± 0.023	2.03 ± 0.027
UUCAAC	2.026 ± 0.015	2.02 ± 0.046
CAACGC	2.025 ± 0.011	2.02 ± 0.038
GAUCGC	1.998 ± 0.016	2.032 ± 0.014
UCAUGG	1.947 ± 0.0059	2.03 ± 0.048
GGAAUA	2.022 ± 0.0049	2.04 ± 0.04
CUUGCU	2.051 ± 0.0067	2.04 ± 0.012
UCACAU	1.986 ± 0.0076	2.02 ± 0.048
GGUUAC	1.999 ± 0.0035	2 ± 0.038
CAGCCG	2.044 ± 0.0032	2.053 ± 0.019
UGAAUC	2.07 ± 0.021	2.06 ± 0.047
CAUCUG	2.03 ± 0.032	2.02 ± 0.025
UCCGAC	2.029 ± 0.013	2.031 ± 0.0089
CCACUG	2.02 ± 0.041	2.074 ± 0.018
UCCCUA	2.007 ± 0.0055	2 ± 0.024
CUGCUC	2.11 ± 0.053	2.02 ± 0.034

— the supplement of paper PMC6757056
